According to the RNAGym collection of RNA variant scans (doi:10.1073/pnas.2313332121):
This sample holds only a part of the variants without activity.

B1: TPR 5TU (parent)
chain: GGAUCUUCUCGAUCUAACAAAAAAGACAAAUCUGCCACAAAGCUUGAGAGCAUCUUCGGAUGCAGAGGCGGCAGCCUUCGGUGGCGCGAUAGCGCCAACGUUCUCAACUAUGACACGCAAAACGCGUGCUCCGUUGAAUGGAGUUUAUCAUG

Variants of: B1
Experiment: polymerase ribozyme fitness, log enrichment relative to wild type (log ratio); higher = more active; in vitro selection for triplet polymerase activity
Procedure, shortened: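 One round of in vitro selection, in triplicate, was applied to PCR-built, transcribed mutant libraries of each subunit of a heterodimeric triplet polymerase ribozyme. The steps were annealing with a biotinylated primer, partner subunit and triplets, incubation frozen at −7 °C, gel excision of extended constructs, streptavidin-bead capture and RT-PCR. Fitness is the logarithm, base 2, of genotype enrichment over wild-type enrichment from inverse-variance-weighted replicate averages of Illumina-sequenced inputs and outputs, keeping genotypes with ≥10 input reads and ≥1 read per output.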

Row | Variant | polymerase ribozyme fitness (log ratio)
1 | U9A U31G C57U G74C G92C | ≤ -4.2
2 | U9G G25C C27U C35U U102A A147C | ≤ -4.2
3 | C8U A29G G62A C93U C95A U144A | ≤ -4.2
4 | C8G C87U | -3.36
5 | C10A C54U G67C C85A A107U | ≤ -4.2
6 | U9A G25C C38U G71U U135C A147G | ≤ -4.2
7 | U9G U33A G50A | -4.2
8 | U9G U31G G83C C99U U144G | ≤ -4.2
9 | U9C A12C A20G U53A A73U G92U C114A A121U G140A U151A | ≤ -4.2
10 | U9G A19C A23G A39G C93G U139A G152U | ≤ -4.2
11 | U9A A23U C32G C54G G92U U101C G140U | ≤ -4.2
12 | C8U G92C U111C | ≤ -4.2
13 | C8G A20C | -3.59
14 | C8U G67A U82G U90G C96A C105A C116A C125U U135A A147C U148G | ≤ -4.2
15 | U9A A28G A41C A64U G80U C87A C95U C131G | ≤ -4.2
16 | C8G U15C A52G C57G G59U C87G | -3.95
17 | U9A U13A A29G C96A C132A | ≤ -4.2
18 | U9C A26U C38U C54A A66C U78A A89C A97G | ≤ -4.2
19 | U7C C8G A30C C85G U134A | ≤ -4.2
20 | C8U A52U U56A U61A C75U C93U C99G C132G | ≤ -4.2
21 | U9A C10G G48U C63G C85A A137G G141U | ≤ -4.2

Row | Variant | polymerase ribozyme fitness (log ratio)
22 | U7G C96U | -2.17
23 | C10A A21G A29G C51U A52G U78C C95A A122U U146G | ≤ -4.2
24 | U7C C18G G25C A28U C38G U55A G70C G94C | ≤ -4.2
25 | C8A A17U U55A G81C C87A A91U U144C U145C | ≤ -4.2
26 | C8U C18G C38A C76U U78C A106U A110C C132G U135C U144C U148A C149G | ≤ -4.2
27 | U9A C38A C72A G84A C125U | ≤ -4.2
28 | C8U A16U A21C G67U C87U | ≤ -4.2
29 | U7C A16U G92C C116G | -3.77
30 | C10A U13G G25C G34U U61A C63U G68C U77C C79A G86A | ≤ -4.2
31 | C8A C85G C103U A110G U134G C149G | ≤ -4.2
32 | C8A C32A G62A U82G G143A | ≤ -4.2
33 | C8A U31G U33G A40U C51U U77C C93G C108G C116U A147G | ≤ -4.2
34 | C10A A23G C32A C38U G46U G59A A60G A97G | ≤ -4.2
35 | U7G G48A G59A A60G A97G | -3.81
36 | U9G U55A C96G C116A | -4.14
37 | C10G A21U A91G | ≤ -4.2
38 | C10A G59A A91U U111A U127C A138U A150G | ≤ -4.2
39 | C8A U53A | -3.45
40 | C8A G34C U45A G50A U55A G74A A91G U102G G140C G141A | ≤ -4.2
41 | U9G A41U U53A C96A U102A A150U | ≤ -4.2
42 | U9A A26U G92U A142U | ≤ -4.2

Row | Variant | polymerase ribozyme fitness (log ratio)
43 | U9G G58A C75U G83U C95A C131A | ≤ -4.2
44 | C8U C18A A20C A23C G62C A89G G136U | ≤ -4.2
45 | C8U A60G A121C | -3.73
46 | U7C C38U C87A A122U | ≤ -4.2
47 | U9C C18U G71C U82A C85G U146G A150C | ≤ -4.2
48 | C8U C35U A41C G58C G68U G86U C114A G140A | ≤ -4.2
49 | U7C G25U U31C G62C C75U G117U A122G | ≤ -4.2
50 | U7G C93G U139A | ≤ -4.2
51 | C10A C63U G67A U77C G92A U127C U135G | ≤ -4.2
52 | U9G C85U G92U U145A | ≤ -4.2
53 | U7G U44G U55G C99A | ≤ -4.2
54 | U7C | -1.19
55 | U7G | -2.22
56 | C8G A52U C95U U104G G140U | ≤ -4.2
57 | C8G A24U G25U G80A C96G C125A | ≤ -4.2
58 | C8U C10A A23C G59U G88U | ≤ -4.2
59 | U7C G50U C87A U90A A106C | ≤ -4.2
60 | U9G G59C G92C A107G A115G | ≤ -4.2
61 | U9G C18U A39G A49C C51A G94U A106G | ≤ -4.2
62 | C10G A26C C75A G84A | ≤ -4.2
63 | U7C U45G G83C G128U C132G A147C | ≤ -4.2

Row | Variant | polymerase ribozyme fitness (log ratio)
64 | U7G A16U A28C G62C G86U C95U A110U | ≤ -4.2
65 | C8G A12G C35U C75A G86U U109G U127G A137G | ≤ -4.2
66 | U7C G50A A66G | ≤ -4.2
67 | C10A C14U A30U C51A C57G G84A | ≤ -4.2
68 | U9C C10G | -4.15
69 | C8G G11C C14U G50C C95U C132A U135A A137C | ≤ -4.2
70 | C8A A22U A41C C93A G136C | ≤ -4.2
71 | C8A C14G | -3.51
72 | C10A A12U A47U C93G A137G | ≤ -4.2
73 | U9C A24C A40C C93A C105G G141C | ≤ -4.2
74 | C8U C57A | -2.69
75 | C8U C57U | -3.18
76 | C10A C14G A19U A30C C93U | ≤ -4.2
77 | C8G C36U C114U A115G U135G A150C | ≤ -4.2
78 | U9G U13G A22C A28U A41C C76U G92A U148A | ≤ -4.2
79 | C8G G70C C93U C99U U148G | ≤ -4.2
80 | C8A A24G A41C C93U A97U A120G | ≤ -4.2
81 | C10A A66U G81A G94U U134A | ≤ -4.2
82 | U9A C75U G88C C99G U101A C118U A137C | ≤ -4.2
83 | U9A A39U U61A C76U C93A A120U G141A | ≤ -4.2
84 | U9G C103A | -3.73
